Assay results from article PMC6070450, “The tetraamine chelator outperforms HYNIC in a new technetium-99m-labelled somatostatin receptor 2 antagonist” (EJNMMI Research, 2018).
Where two headings read alike, the source gives them in different places.

Assays:
sst5 [1] = target: T1, sst5 (Homo sapiens, UniProt P35346); experiment: Receptor autoradiography binding affinity, sst5; settings: membrane pellet sections of sst5-expressing HEK293 cells; mean ± SEM, n ≥ 3
T1 construct: expressed in transfected cells; host or cells: HEK293 cells (gift of Prof. Stefan Schulz, University of Jena)
Method: (§1) Cell membrane pellets were prepared from human sst1-expressing Chinese hamster ovary cells (kindly provided by Drs. T. Reisine and G. Singh, University of Pennsylvania, Philadelphia, Pa.); sst2-, sst3-, and sst4-expressing CCL39 cells (kindly provided by Dr. D. Hoyer, Novartis Pharma, Basel, Switzerland); and sst5-expressing human embryonic kidney 293 (HEK293) cells (kindly provided by Prof. Stefan Schulz, University of Jena, Germany) and stored at − 80 °C. Quantitative receptor autoradiography was performed on 20-μm-thick membrane pellet sections and quantitated as previously described.

sst2 [2] = target: T2, sst2 (Homo sapiens, UniProt P30874); experiment: Receptor autoradiography binding affinity, sst2; settings: membrane pellet sections of sst2-expressing CCL39 cells; mean ± SEM, n ≥ 3
T2 construct: expressed in transfected cells; host or cells: CCL39 cells (gift of Dr. D. Hoyer, Novartis)
Method: as §1

sst1 [3] = target: T3, sst1 (Homo sapiens, UniProt P30872); experiment: Receptor autoradiography binding affinity, sst1; settings: membrane pellet sections of human sst1-expressing CHO cells; mean ± SEM, n ≥ 3
T3 construct: expressed in transfected cells; host or cells: Chinese hamster ovary cells (gift of Drs. T. Reisine and G. Singh)
Method: as §1

sst4 [4] = target: T4, sst4 (Homo sapiens, UniProt P31391); experiment: Receptor autoradiography binding affinity, sst4; settings: membrane pellet sections of sst4-expressing CCL39 cells; mean ± SEM, n ≥ 3
T4 construct: expressed in transfected cells; host or cells: CCL39 cells (gift of Dr. D. Hoyer, Novartis)
Method: as §1

sst3 [5] = target: T5, sst3 (Homo sapiens, UniProt P32745); experiment: Receptor autoradiography binding affinity, sst3; settings: membrane pellet sections of sst3-expressing CCL39 cells; mean ± SEM, n ≥ 3
T5 construct: expressed in transfected cells; host or cells: CCL39 cells (gift of Dr. D. Hoyer, Novartis)
Method: as §1

[6] = format: physicochemical
Method: The distribution coefficients (log D) were determined using the shake-flask method (see Additional file 1). […]
equivalents of DIPEA were used. The cleavage and deprotection of the peptide-chelator conjugates was accomplished by incubating for 1.5h in TFA:thioanisole:triisopropylsilane:H2O 95:2:2:1. The resin was then filtered and washed with the above mixture, after which the filtrate was evaporated and triturated with diethyl ether to give the crude product. This was purified by semi-preparative HPLC to obtain the corresponding chelator-peptide conjugate with purity ≥97%.
Radiolabeling of Chelator-Peptide Conjugates
177Lu-SS-03: 10 µg of SS-03 in 300 µL sodium acetate buffer (0.4 mol/L, pH 5.0) were […]
phosphate buffer pH 11.5 (50 μL) and 0.1 M sodium citrate (5 μL) followed by SS-04 solution (30 μg, 25 μL) and freshly prepared SnCl2 solution in ethanol (30 μg, 25 μL). […]
99mTc-SS-05: 30 µg SS05 was added to 1 mL aqueous edda/tricine solution (5 mg edda, 15 mg tricine). […] All radiolabeled peptides were analyzed with analytical HPLC. […]
Each radiopeptide was added to a presaturated 1/1mixture of PBS/n-octanol, at a concentration of 100 nmol/L. The mixtures were vigorously shaken for 10 min and then centrifuged. The activity concentrations of equal volume samples of both phases were measured in a γ-counter and the partition coefficient (LogD) was calculated. […]

in vivo = experiment: in vivo; parameters: species or system mice; settings: female, athymic nude, mouse, iv, 10 pmol, total radioactivity
Method: All animal experiments were conducted in compliance with Swiss animal protection laws and associated regulations. The protocol was approved by the Cantonal Veterinary Ethics Committee of the University of Basel (approval #789). Female athymic nude mice (4–6 weeks old) were injected subcutaneously (s.c.) in the right shoulder with 10^7 HEK293-rsst2 cells in 100 μL sterile PBS. The tumours were allowed to grow for 14–18 days (tumour weight 100–200 mg).
The mice were injected into the tail vein with 100 μL/10 pmol/0.37 MBq of ^177Lu-SS-03 or ^99mTc-SS-04 and were euthanised at 1, 4, and 24 h post-injection (p.i.). Organs of interest and blood were collected, rinsed of excess blood, blotted dry, weighed, and counted in a γ-counter. To determine nonspecific uptake, three animals were pre-injected with 20 nmol of the relevant unlabelled peptide in 0.9% NaCl solution (0.1 mL); after 5 min, the radiopeptide was injected and the percentage of injected activity per gram (%IA/g) was calculated for each tissue. The total counts injected per animal were determined by extrapolation from counts of an aliquot taken from the injected solution as a standard.

sst4 [7] = target: T4, sst4; settings: mean ± SEM; cited from earlier work
Description: Table 2 Binding affinities (IC50, nM) of chelator-peptide conjugates | column: IC50 (nM)* / sst4

sst5 [8] = target: T1, sst5; settings: mean ± SEM; cited from earlier work
Description: Table 2 Binding affinities (IC50, nM) of chelator-peptide conjugates | column: IC50 (nM)* / sst5

sst2 [9] = target: T2, sst2; settings: mean ± SEM; cited from earlier work
Description: Table 2 Binding affinities (IC50, nM) of chelator-peptide conjugates | column: IC50 (nM)* / sst2

sst3 [10] = target: T5, sst3; settings: mean ± SEM; cited from earlier work
Description: Table 2 Binding affinities (IC50, nM) of chelator-peptide conjugates | column: IC50 (nM)* / sst3

sst1 [11] = target: T3, sst1; settings: mean ± SEM; cited from earlier work
Description: Table 2 Binding affinities (IC50, nM) of chelator-peptide conjugates | column: IC50 (nM)* / sst1

T5 sequence (P32745 whole entry): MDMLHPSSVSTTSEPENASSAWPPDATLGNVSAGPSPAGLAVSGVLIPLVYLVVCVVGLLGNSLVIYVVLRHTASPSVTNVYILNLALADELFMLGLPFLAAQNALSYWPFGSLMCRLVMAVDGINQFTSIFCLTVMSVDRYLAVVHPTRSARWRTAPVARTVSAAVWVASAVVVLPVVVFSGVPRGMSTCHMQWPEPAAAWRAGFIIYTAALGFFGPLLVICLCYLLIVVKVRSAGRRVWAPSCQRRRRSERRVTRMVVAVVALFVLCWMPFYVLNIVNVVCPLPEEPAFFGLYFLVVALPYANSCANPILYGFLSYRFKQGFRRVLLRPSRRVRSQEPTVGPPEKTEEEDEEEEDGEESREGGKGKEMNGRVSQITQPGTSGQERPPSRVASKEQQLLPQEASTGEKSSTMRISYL
T2 sequence (P30874 whole entry): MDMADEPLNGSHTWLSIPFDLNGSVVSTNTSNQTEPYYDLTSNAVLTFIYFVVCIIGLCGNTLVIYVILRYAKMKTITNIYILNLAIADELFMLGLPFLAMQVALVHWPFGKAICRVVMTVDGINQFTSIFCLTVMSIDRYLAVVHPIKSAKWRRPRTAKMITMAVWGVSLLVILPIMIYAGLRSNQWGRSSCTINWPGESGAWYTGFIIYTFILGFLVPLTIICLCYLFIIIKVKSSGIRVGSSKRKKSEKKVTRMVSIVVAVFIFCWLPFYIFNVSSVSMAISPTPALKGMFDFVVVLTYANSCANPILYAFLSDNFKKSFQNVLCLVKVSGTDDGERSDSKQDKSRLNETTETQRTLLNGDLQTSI
T1 sequence (P35346 whole entry): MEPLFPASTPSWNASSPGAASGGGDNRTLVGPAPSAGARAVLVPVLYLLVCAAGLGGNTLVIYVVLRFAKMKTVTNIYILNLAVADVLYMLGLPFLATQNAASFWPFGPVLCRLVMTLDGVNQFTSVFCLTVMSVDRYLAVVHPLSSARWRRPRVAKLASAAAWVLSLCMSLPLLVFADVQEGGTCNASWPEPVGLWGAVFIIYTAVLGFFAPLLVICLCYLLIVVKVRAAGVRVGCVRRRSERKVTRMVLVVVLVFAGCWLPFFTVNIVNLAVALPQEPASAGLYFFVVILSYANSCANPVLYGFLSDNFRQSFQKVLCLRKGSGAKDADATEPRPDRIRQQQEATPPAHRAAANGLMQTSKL
T3 sequence (P30872 whole entry): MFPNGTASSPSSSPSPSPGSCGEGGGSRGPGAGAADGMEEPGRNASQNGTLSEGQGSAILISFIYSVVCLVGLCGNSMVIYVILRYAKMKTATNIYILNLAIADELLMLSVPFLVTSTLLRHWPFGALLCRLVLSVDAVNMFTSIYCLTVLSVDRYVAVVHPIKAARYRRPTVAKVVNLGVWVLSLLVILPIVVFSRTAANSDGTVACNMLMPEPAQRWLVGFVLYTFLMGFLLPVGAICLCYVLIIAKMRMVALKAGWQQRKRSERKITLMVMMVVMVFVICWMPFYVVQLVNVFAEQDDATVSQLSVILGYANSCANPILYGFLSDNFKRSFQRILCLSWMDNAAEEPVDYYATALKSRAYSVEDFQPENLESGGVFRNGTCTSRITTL
T4 sequence (P31391 whole entry): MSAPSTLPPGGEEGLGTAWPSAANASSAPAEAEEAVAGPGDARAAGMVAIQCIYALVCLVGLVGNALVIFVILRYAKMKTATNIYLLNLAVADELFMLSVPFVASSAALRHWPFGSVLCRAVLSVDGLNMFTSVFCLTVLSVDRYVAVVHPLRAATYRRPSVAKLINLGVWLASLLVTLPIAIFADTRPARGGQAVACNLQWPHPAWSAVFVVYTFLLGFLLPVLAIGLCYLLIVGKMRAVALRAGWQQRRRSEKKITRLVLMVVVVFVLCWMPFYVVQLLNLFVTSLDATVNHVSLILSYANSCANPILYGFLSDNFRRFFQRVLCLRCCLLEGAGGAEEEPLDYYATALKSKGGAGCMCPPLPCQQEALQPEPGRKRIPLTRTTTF

In the case of C[C@@H](O)[C@@H]1NC(=O)[C@H](CCCCN)NC(=O)[C@@H](Cc2c[nH]c3ccccc23)NC(=O)[C@H](Cc2ccc(O)cc2)NC(=O)[C@H](NC(=O)[C@H](Cc2ccc(Cl)cc2)NC(=O)CN2CCN(CC(=O)O)CCN(CC(=O)O)CCN(CC(=O)O)CC2)CSSC[C@@H](C(=O)N[C@H](Cc2ccc(O)cc2)C(N)=O)NC1=O [SS-03, DOTA-(4-Cl)-Phe-Cyclo(D-Cys-Tyr-D-Trp-Lys-Thr-Cys)-D-Tyr-NH2], the IC50 (sst5 [1]) is reported as 564 ± 174 nM, the IC50 (sst2 [2]) is reported as 1.7 ± 0.06 nM and the IC50 (sst1 [3]) is reported as over 1000 nM. For the same compound, the IC50 (sst4 [4]) was 404 ± 92 nM and the IC50 (sst3 [5]) was over 1000 nM.

C[C@@H](O)[C@@H]1NC(=O)[C@H](CCCCN)NC(=O)[C@@H](Cc2c[nH]c3ccccc23)NC(=O)[C@H](Cc2ccc(O)cc2)NC(=O)[C@H](NC(=O)[C@H](Cc2ccc(Cl)cc2)NC(=O)C(CNCCN)CNCCN)CSSC[C@@H](C(=O)N[C@H](Cc2ccc(O)cc2)C(N)=O)NC1=O [SS-04, N4-(4-Cl)-Phe-Cyclo(D-Cys-Tyr-D-Trp-Lys-Thr-Cys)-D-Tyr-NH2] showed an IC50 (sst5 [1]) of 228 ± 73 nM, an IC50 (sst2 [2]) of 5.3 ± 0.17 nM and an IC50 (sst1 [3]) of over 1000 nM. The IC50 (sst4 [4]) was 171 ± 35 nM and the IC50 (sst3 [5]) was 720 ± 74 nM.

In the case of C[C@@H](O)[C@@H]1NC(=O)[C@H](CCCCN)NC(=O)[C@@H](Cc2c[nH]c3ccccc23)NC(=O)[C@H](Cc2ccc(O)cc2)NC(=O)[C@H](NC(=O)[C@H](Cc2ccc(Cl)cc2)NC(=O)c2ccc(NN)nc2)CSSC[C@@H](C(=O)N[C@H](Cc2ccc(O)cc2)C(N)=O)NC1=O [^99mTc-SS-05, metal not drawn], the “log D” value [6] is reported as “− 2.03 ± 0.27”.

With C[C@@H](O)[C@@H]1NC(=O)[C@H](CCCCN)NC(=O)[C@@H](Cc2c[nH]c3ccccc23)NC(=O)[C@H](Cc2ccc(O)cc2)NC(=O)[C@H](NC(=O)[C@H](Cc2ccc(Cl)cc2)NC(=O)CN2CCN(CC(=O)O)CCN(CC(=O)O)CCN(CC(=O)O)CC2)CSSC[C@@H](C(=O)N[C@H](Cc2ccc(O)cc2)C(N)=O)NC1=O [^177Lu-SS-03, metal not drawn] the “log D” value [6] was “− 2.35 ± 0.22”, the tissue uptake at 1 h (in vivo; Adrenal uptake) was 3.7 ± 0.63 %ID/g and the tissue uptake at 4 h (in vivo; Adrenal uptake) was 2.9 ± 0.46 %ID/g. For the same compound, the tissue uptake at 24 h (in vivo; Adrenal uptake) was 1.16 ± 0.46 %ID/g, the tissue uptake at 1 h (in vivo; Blood uptake) was 0.57 ± 0.04 %ID/g and the tissue uptake at 4 h (in vivo; Blood uptake) was 0.21 ± 0.04 %ID/g. For the same compound, the tissue uptake at 24 h (in vivo; Blood uptake) was under 0.1 %ID/g, the tissue uptake at 1 h (in vivo; Bone uptake) was 4.11 ± 0.53 %ID/g and the tissue uptake at 4 h (in vivo; Bone uptake) was 2.77 ± 1.06 %ID/g. The tissue uptake at 24 h (in vivo; Bone uptake) was 1.25 ± 0.16 %ID/g, the tissue uptake at 1 h (in vivo; Heart uptake) was 0.69 ± 0.12 %ID/g and the tissue uptake at 4 h (in vivo; Heart uptake) was 0.38 ± 0.07 %ID/g. It also gave a tissue uptake at 24 h (in vivo; Heart uptake) of 0.11 ± 0.04 %ID/g, a tissue uptake at 1 h (in vivo; Intestine uptake) of 3.13 ± 1.16 %ID/g and a tissue uptake at 4 h (in vivo; Intestine uptake) of 2.28 ± 0.31 %ID/g. It also gave a tissue uptake at 24 h (in vivo; Intestine uptake) of 0.27 ± 0.06 %ID/g, a tissue uptake at 1 h (in vivo; Kidney uptake) of 15.2 ± 1.86 %ID/g and a tissue uptake at 4 h (in vivo; Kidney uptake) of 17 ± 1.81 %ID/g. The tissue uptake at 24 h (in vivo; Kidney uptake) was 7.35 ± 1.66 %ID/g, the tissue uptake at 1 h (in vivo; Liver uptake) was 3 ± 0.66 %ID/g and the tissue uptake at 4 h (in vivo; Liver uptake) was 1.75 ± 0.22 %ID/g. For the same compound, the tissue uptake at 24 h (in vivo; Liver uptake) was 0.47 ± 0.07 %ID/g, the tissue uptake at 1 h (in vivo; Lung uptake) was 13.2 ± 4.49 %ID/g and the tissue uptake at 4 h (in vivo; Lung uptake) was 6.71 ± 1.37 %ID/g. The tissue uptake at 24 h (in vivo; Lung uptake) was 0.74 ± 0.22 %ID/g, the tissue uptake at 1 h (in vivo; Muscle uptake) was 0.22 ± 0.06 %ID/g and the tissue uptake at 4 h (in vivo; Muscle uptake) was 0.12 ± 0.02 %ID/g. For the same compound, the tissue uptake at 24 h (in vivo; Muscle uptake) was 0.07 ± 0.02 %ID/g, the tissue uptake at 1 h (in vivo; Pancreas uptake) was 72.6 ± 13.8 %ID/g and the tissue uptake at 4 h (in vivo; Pancreas uptake) was 54.5 ± 7.28 %ID/g. For the same compound, the tissue uptake at 24 h (in vivo; Pancreas uptake) was 3.03 ± 0.62 %ID/g, the tissue uptake at 1 h (in vivo; Spleen uptake) was 1.51 ± 0.19 %ID/g and the tissue uptake at 4 h (in vivo; Spleen uptake) was 1.42 ± 0.77 %ID/g. The tissue uptake at 24 h (in vivo; Spleen uptake) was 0.33 ± 0.06 %ID/g, the tissue uptake at 1 h (in vivo; Stomach uptake) was 48.7 ± 13.1 %ID/g and the tissue uptake at 4 h (in vivo; Stomach uptake) was 30.2 ± 4.25 %ID/g. The tissue uptake at 24 h (in vivo; Stomach uptake) was 6.02 ± 1.4 %ID/g, the tissue uptake at 1 h (in vivo; Tumour uptake) was 23.6 ± 1.28 %ID/g and the tissue uptake at 4 h (in vivo; Tumour uptake) was 31.7 ± 4 %ID/g. For the same compound, the tissue uptake at 24 h (in vivo; Tumour uptake) was 26.3 ± 4.42 %ID/g, the tissue to tissue ratio at 1 h (in vivo; Tumour/blood ratio) was 41.3 and the tissue to tissue ratio at 4 h (in vivo; Tumour/blood ratio) was 150. For the same compound, the tissue to tissue ratio at 24 h (in vivo; Tumour/blood ratio) was 361, the tissue to tissue ratio at 1 h (in vivo; Tumour/bone ratio) was 5.7 and the tissue to tissue ratio at 4 h (in vivo; Tumour/bone ratio) was 11.5. It also gave a tissue to tissue ratio at 24 h (in vivo; Tumour/bone ratio) of 21.1, a tissue to tissue ratio at 1 h (in vivo; Tumour/kidney ratio) of 1.56 and a tissue to tissue ratio at 4 h (in vivo; Tumour/kidney ratio) of 1.86. The tissue to tissue ratio at 24 h (in vivo; Tumour/kidney ratio) was 3.58, the tissue to tissue ratio at 1 h (in vivo; Tumour/liver ratio) was 7.9 and the tissue to tissue ratio at 4 h (in vivo; Tumour/liver ratio) was 18.1. It also gave a tissue to tissue ratio at 24 h (in vivo; Tumour/liver ratio) of 55.8, a tissue to tissue ratio at 1 h (in vivo; Tumour/muscles ratio) of 110 and a tissue to tissue ratio at 4 h (in vivo; Tumour/muscles ratio) of 259. The tissue to tissue ratio at 24 h (in vivo; Tumour/muscles ratio) was 372.

In the case of “DOTA-pNO2Phe-cyclo[D-Cys-Tyr-D-Trp-Lys-Thr-Cys]-D-Tyr-NH2 (disulfide) [DOTA-sst2-ANT]”, the IC50 (sst4 [7]) is listed as 287 ± 27 nM, the IC50 (sst5 [8]) is listed as over 1000 nM and the IC50 (sst2 [9]) is listed as 1.5 ± 0.4 nM. The IC50 (sst3 [10]) was over 1000 nM and the IC50 (sst1 [11]) was over 1000 nM.
